Source: patent US20230220589A1

Experiments:
[1] = molecular target: M44-modified E NTAA target peptides; assay: encoding assay; P2 G;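 further: fraction of recording tags encoded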
[2] = molecular target: M44-modified F NTAA target peptides (M44-F-P2-peptide); assay: encoding assay; P2 G;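 further: fraction of recording tags encoded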
[3] = molecular target: M44-modified I NTAA target peptides (M44-I-P2-peptide); assay: encoding assay; P2 G
[4] = molecular target: M44-modified L NTAA target peptides (M44-L-P2-peptide); assay: encoding assay; P2 G;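 further: fraction of recording tags encoded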
[5] = molecular target: M44-modified M NTAA target peptides; assay: encoding assay; P2 G
[6] = molecular target: M44-modified Q NTAA target peptides; assay: encoding assay; P2 G
[7] = molecular target: M44-modified T NTAA target peptides; assay: encoding assay; P2 G
[8] = molecular target: M44-modified V NTAA target peptides; assay: encoding assay; P2 G;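 further: fraction of recording tags encoded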
[9] = molecular target: M44-modified W NTAA target peptides; assay: encoding assay; P2 G;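 further: fraction of recording tags encoded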
[10] = molecular target: M44-modified Y NTAA target peptides (M44-Y-P2-peptide); assay: encoding assay; P2 G;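 further: fraction of recording tags encoded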
[11] = molecular target: M44-modified A NTAA target peptides (M44-A-P2-peptide); assay: encoding assay; P2 P
[12] = molecular target: M44-modified D NTAA target peptides; assay: encoding assay; P2 P;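 further: fraction of recording tags encoded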
[13] = molecular target: M44-modified E NTAA target peptides; assay: encoding assay; P2 P;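 further: fraction of recording tags encoded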
[14] = molecular target: M44-modified F NTAA target peptides (M44-F-P2-peptide); assay: encoding assay; P2 P;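 further: fraction of recording tags encoded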
[15] = molecular target: M44-modified H NTAA target peptides; assay: encoding assay; P2 P
[16] = molecular target: M44-modified I NTAA target peptides (M44-I-P2-peptide); assay: encoding assay; P2 P
[17] = molecular target: M44-modified L NTAA target peptides (M44-L-P2-peptide); assay: encoding assay; P2 P;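 further: fraction of recording tags encoded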
[18] = molecular target: M44-modified M NTAA target peptides; assay: encoding assay; P2 P
[19] = molecular target: M44-modified N NTAA target peptides; assay: encoding assay; P2 P
[20] = molecular target: M44-modified Q NTAA target peptides; assay: encoding assay; P2 P
[21] = molecular target: M44-modified S NTAA target peptides; assay: encoding assay; P2 P
[22] = molecular target: M44-modified Y NTAA target peptides (M44-Y-P2-peptide); assay: encoding assay; P2 P;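 further: fraction of recording tags encoded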
[23] = molecular target: M44-modified A NTAA target peptides (M44-A-P2-peptide); assay: encoding assay; P2 V
[24] = molecular target: M44-modified D NTAA target peptides; assay: encoding assay; P2 V;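 further: fraction of recording tags encoded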
[25] = molecular target: M44-modified F NTAA target peptides (M44-F-P2-peptide); assay: encoding assay; P2 V;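 further: fraction of recording tags encoded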
[26] = molecular target: M44-modified H NTAA target peptides; assay: encoding assay; P2 V
[27] = molecular target: M44-modified I NTAA target peptides (M44-I-P2-peptide); assay: encoding assay; P2 V
[28] = molecular target: M44-modified L NTAA target peptides (M44-L-P2-peptide); assay: encoding assay; P2 V;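 further: fraction of recording tags encoded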
[29] = molecular target: M44-modified M NTAA target peptides; assay: encoding assay; P2 V
[30] = molecular target: M44-modified N NTAA target peptides; assay: encoding assay; P2 V
[31] = molecular target: M44-modified P NTAA target peptides; assay: encoding assay; P2 V;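 further: fraction of recording tags encoded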
[32] = molecular target: M44-modified Q NTAA target peptides; assay: encoding assay; P2 V
[33] = molecular target: M44-modified S NTAA target peptides; assay: encoding assay; P2 V
[34] = molecular target: M44-modified T NTAA target peptides; assay: encoding assay; P2 V
[35] = molecular target: M44-modified Y NTAA target peptides (M44-Y-P2-peptide); assay: encoding assay; P2 V;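 further: fraction of recording tags encoded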
[36] = molecular target: M44-modified A NTAA target peptides (M44-A-P2-peptide); assay: encoding assay; P2 W
[37] = molecular target: M44-modified D NTAA target peptides; assay: encoding assay; P2 W;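 further: fraction of recording tags encoded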
[38] = molecular target: M44-modified F NTAA target peptides (M44-F-P2-peptide); assay: encoding assay; P2 W;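 further: fraction of recording tags encoded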
[39] = molecular target: M44-modified G NTAA target peptides (M44-G-P2-peptide); assay: encoding assay; P2 W;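 further: fraction of recording tags encoded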
[40] = molecular target: M44-modified H NTAA target peptides; assay: encoding assay; P2 W
[41] = molecular target: M44-modified I NTAA target peptides (M44-I-P2-peptide); assay: encoding assay; P2 W
[42] = molecular target: M44-modified L NTAA target peptides (M44-L-P2-peptide); assay: encoding assay; P2 W;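 further: fraction of recording tags encoded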
[43] = molecular target: M44-modified M NTAA target peptides; assay: encoding assay; P2 W
[44] = molecular target: M44-modified N NTAA target peptides; assay: encoding assay; P2 W
[45] = molecular target: M44-modified P NTAA target peptides; assay: encoding assay; P2 W;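 further: fraction of recording tags encoded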
[46] = molecular target: M44-modified Q NTAA target peptides; assay: encoding assay; P2 W
[47] = molecular target: M44-modified S NTAA target peptides; assay: encoding assay; P2 W
[48] = molecular target: M44-modified T NTAA target peptides; assay: encoding assay; P2 W
[49] = molecular target: M44-modified V NTAA target peptides; assay: encoding assay; P2 W;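 further: fraction of recording tags encoded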
[50] = molecular target: M44-modified W NTAA target peptides; assay: encoding assay; P2 W;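 further: fraction of recording tags encoded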
[51] = molecular target: M44-modified Y NTAA target peptides (M44-Y-P2-peptide); assay: encoding assay; P2 W;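 further: fraction of recording tags encoded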

B1: engineered M44-L binder (SEQ ID NO: 21) (designed binder, not shown: small tags and cut ends; large carriers)
chain: QVSVQPNFQQDKFLGRWFYAGHASNSSWYREKVAALSMAKLVVAPATDGGLNATETFLRKNQCETITSLLQPAGSLGSYSSRSPHGGSTWSTSVVETDYDQYALLYLQGSKGPGEDFRGAILASRTQTPRAELKEKFTAFSKAQGFTEDTIVFLPQTDKCMTEQ
encoding yield [1]: 0.01 | encoding yield [2]: 0.03 | encoding yield [3]: 0.17 | encoding yield [4]: 0.07 | encoding yield [5]: 0.01 | encoding yield [6]: 0.01 | encoding yield [7]: 0.02 | encoding yield [8]: 0.02 | encoding yield [9]: 0.01 | encoding yield [10]: 0.01 | encoding yield [11]: 0.01 | encoding yield [12]: 0.01 | encoding yield [13]: 0.01 | encoding yield [14]: 0.09 | encoding yield [15]: 0.01 | encoding yield [16]: 0.01 | encoding yield [17]: 0.09 | encoding yield [18]: 0.04 | encoding yield [19]: 0.01 | encoding yield [20]: 0.01 | encoding yield [21]: 0.02 | encoding yield [22]: 0.02 | encoding yield [23]: 0.01 | encoding yield [24]: 0.01 | encoding yield [25]: 0.04 | encoding yield [26]: 0.01 | encoding yield [27]: 0.09 | encoding yield [28]: 0.09 | encoding yield [29]: 0.08 | encoding yield [30]: 0.01 | encoding yield [31]: 0.01 | encoding yield [32]: 0.01 | encoding yield [33]: 0.01 | encoding yield [34]: 0.01 | encoding yield [35]: 0.02 | encoding yield [36]: 0.01 | encoding yield [37]: 0.01 | encoding yield [38]: 0.09 | encoding yield [39]: 0.01 | encoding yield [40]: 0.01 | encoding yield [41]: 0.14 | encoding yield [42]: 0.03 | encoding yield [43]: 0.01 | encoding yield [44]: 0.01 | encoding yield [45]: 0.01 | encoding yield [46]: 0.01 | encoding yield [47]: 0.02 | encoding yield [48]: 0.01 | encoding yield [49]: 0.03 | encoding yield [50]: 0.03 | encoding yield [51]: 0.02

B2: engineered M44-L binder (SEQ ID NO: 31) (designed binder, not shown: small tags and cut ends; large carriers)
chain: QDSTQNLIPAPPLISVPLQPGFWTERFQGRWFLVGFAGNAVQKERQSRLTMQSLILELQEDNSYNITAINVRGQGCRYIISTLVPSSRPGQFTLGNIHSYPQIQSLDVQVADTDYDQFAMVFLQGTSENKQYFEVALAGRTKGLSDELKERFVSFAKSLGLKDNNIVFSVPTDQCIDN
encoding yield [1]: 0.02 | encoding yield [2]: 0.09 | encoding yield [3]: 0.09 | encoding yield [4]: 0.09 | encoding yield [5]: 0.02 | encoding yield [6]: 0.01 | encoding yield [7]: 0.04 | encoding yield [8]: 0.02 | encoding yield [9]: 0.04 | encoding yield [10]: 0.03 | encoding yield [11]: 0.03 | encoding yield [12]: 0.02 | encoding yield [13]: 0.02 | encoding yield [14]: 0.08 | encoding yield [15]: 0.03 | encoding yield [16]: 0.06 | encoding yield [17]: 0.07 | encoding yield [18]: 0.02 | encoding yield [19]: 0.02 | encoding yield [20]: 0.02 | encoding yield [21]: 0.04 | encoding yield [22]: 0.03 | encoding yield [23]: 0.04 | encoding yield [24]: 0.03 | encoding yield [25]: 0.19 | encoding yield [26]: 0.04 | encoding yield [27]: 0.09 | encoding yield [28]: 0.18 | encoding yield [29]: 0.05 | encoding yield [30]: 0.05 | encoding yield [31]: 0.02 | encoding yield [32]: 0.02 | encoding yield [33]: 0.04 | encoding yield [34]: 0.03 | encoding yield [35]: 0.07 | encoding yield [36]: 0.05 | encoding yield [37]: 0.04 | encoding yield [38]: 0.27 | encoding yield [39]: 0.01 | encoding yield [40]: 0.04 | encoding yield [41]: 0.25 | encoding yield [42]: 0.17 | encoding yield [43]: 0.05 | encoding yield [44]: 0.04 | encoding yield [45]: 0.02 | encoding yield [46]: 0.03 | encoding yield [47]: 0.07 | encoding yield [48]: 0.03 | encoding yield [49]: 0.08 | encoding yield [50]: 0.17 | encoding yield [51]: 0.11
